Source: patent US20160129100A1 (UVIC INDUSTRY PARTNERSHIPS, published 2016)

T1: Plasminogen-depleted human fibrinogen (human, UniProt P02671 20-629; P02675 31-491; P02679 27-437)
T1 construct: Bought protein, immobilized at 0.5 µg per well
T1 sequence 1: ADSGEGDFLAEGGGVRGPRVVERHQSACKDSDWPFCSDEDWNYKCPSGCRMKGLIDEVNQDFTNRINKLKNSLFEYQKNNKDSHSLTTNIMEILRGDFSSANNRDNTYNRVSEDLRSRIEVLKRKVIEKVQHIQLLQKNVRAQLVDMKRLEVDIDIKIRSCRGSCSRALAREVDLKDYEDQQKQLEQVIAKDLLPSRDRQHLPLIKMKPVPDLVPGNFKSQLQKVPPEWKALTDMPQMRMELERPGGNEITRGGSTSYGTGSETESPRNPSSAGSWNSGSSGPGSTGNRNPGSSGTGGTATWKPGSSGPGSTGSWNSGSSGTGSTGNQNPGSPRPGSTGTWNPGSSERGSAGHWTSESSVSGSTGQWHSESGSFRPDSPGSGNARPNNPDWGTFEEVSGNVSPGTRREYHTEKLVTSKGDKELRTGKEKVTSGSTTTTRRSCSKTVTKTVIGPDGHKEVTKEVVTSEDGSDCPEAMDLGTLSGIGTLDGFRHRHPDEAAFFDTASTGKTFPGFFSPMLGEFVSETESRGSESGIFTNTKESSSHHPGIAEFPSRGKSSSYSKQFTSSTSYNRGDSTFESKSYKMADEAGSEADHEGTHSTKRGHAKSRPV
T1 sequence 2: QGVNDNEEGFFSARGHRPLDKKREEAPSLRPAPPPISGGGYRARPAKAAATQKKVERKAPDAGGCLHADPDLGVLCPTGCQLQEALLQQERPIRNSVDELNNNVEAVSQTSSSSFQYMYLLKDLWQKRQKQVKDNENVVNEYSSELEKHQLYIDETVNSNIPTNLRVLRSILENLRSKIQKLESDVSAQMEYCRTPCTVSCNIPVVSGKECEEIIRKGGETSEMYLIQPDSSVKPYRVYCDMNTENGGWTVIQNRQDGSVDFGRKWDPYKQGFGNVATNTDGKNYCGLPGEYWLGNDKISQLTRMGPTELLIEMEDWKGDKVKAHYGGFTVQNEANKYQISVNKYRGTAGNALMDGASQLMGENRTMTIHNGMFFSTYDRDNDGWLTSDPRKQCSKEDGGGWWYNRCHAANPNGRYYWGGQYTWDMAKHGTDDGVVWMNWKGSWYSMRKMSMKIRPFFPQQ
T1 sequence 3: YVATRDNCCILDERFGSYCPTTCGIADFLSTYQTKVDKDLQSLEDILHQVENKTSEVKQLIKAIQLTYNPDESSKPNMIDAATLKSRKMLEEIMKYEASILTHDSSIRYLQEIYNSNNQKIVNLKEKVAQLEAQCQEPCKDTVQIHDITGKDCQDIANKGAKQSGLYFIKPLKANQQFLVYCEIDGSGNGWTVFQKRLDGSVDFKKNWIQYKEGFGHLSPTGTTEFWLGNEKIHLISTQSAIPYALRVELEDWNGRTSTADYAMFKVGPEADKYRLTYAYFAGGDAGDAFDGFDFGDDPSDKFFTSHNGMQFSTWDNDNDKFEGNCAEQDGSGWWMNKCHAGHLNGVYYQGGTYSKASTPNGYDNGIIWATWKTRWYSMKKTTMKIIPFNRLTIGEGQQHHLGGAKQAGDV

B1: Tp0751 peptide p7 (peptide)
peptide: HHHHHHTEISPNSGDIHPLLFFDREHAEIT
notes: One of 13 overlapping synthetic 24-mers spanning Tp0751 T46-P237; also called peptide 7
B2: Tp0751 peptide p3 (peptide)
peptide: HHHHHHTDPRSHGNAPPAPVGGAAQTHTQP
notes: One of 13 overlapping synthetic 24-mers spanning Tp0751 T46-P237; also called peptide 3
B3: scrambled version of Tp0751 peptide 10 (p10scr) (peptide)
peptide: HHHHHHTSRVKLTISFERSLVNRTRTARFI
notes: Scrambled synthetic peptide; also called p10 scrambled peptide; scrambled version of peptide 10
B4: Tp0751 peptide p10 (peptide)
peptide: HHHHHHRKTVSFLTRNTAISSIRRRLEVTF
notes: One of 13 overlapping synthetic 24-mers spanning Tp0751 T46-P237; also called peptide 10
B5: Tp0751 peptide p5 (peptide)
peptide: HHHHHHAMRIALWNRATHGEQGALQHLLAG
notes: One of 13 overlapping synthetic 24-mers spanning Tp0751 T46-P237; also called peptide 5
B6: Tp0751 peptide p6 (peptide)
peptide: HHHHHHQGALQHLLAGLWIQTEISPNSGDI
notes: One of 13 overlapping synthetic 24-mers spanning Tp0751 T46-P237; also called peptide 6
B7: Tp0751 peptide p8 (peptide)
peptide: HHHHHHFFDREHAEITFSRASVQEIFLVDS
notes: One of 13 overlapping synthetic 24-mers spanning Tp0751 T46-P237; also called negative control peptide

Columns and labels:
[1] = target: T2, fibronectin isolated from human plasma (human, UniProt P02751 32-2296); experiment: 96-well plate binding assay, immobilized host protein 0.5 µg/well, His-tagged peptide, A600
T2 construct: Bought protein, immobilized at 0.5 µg per well
T2 sequence (P02751 other isoform, or with tags, fused parts or gaps limits assumed): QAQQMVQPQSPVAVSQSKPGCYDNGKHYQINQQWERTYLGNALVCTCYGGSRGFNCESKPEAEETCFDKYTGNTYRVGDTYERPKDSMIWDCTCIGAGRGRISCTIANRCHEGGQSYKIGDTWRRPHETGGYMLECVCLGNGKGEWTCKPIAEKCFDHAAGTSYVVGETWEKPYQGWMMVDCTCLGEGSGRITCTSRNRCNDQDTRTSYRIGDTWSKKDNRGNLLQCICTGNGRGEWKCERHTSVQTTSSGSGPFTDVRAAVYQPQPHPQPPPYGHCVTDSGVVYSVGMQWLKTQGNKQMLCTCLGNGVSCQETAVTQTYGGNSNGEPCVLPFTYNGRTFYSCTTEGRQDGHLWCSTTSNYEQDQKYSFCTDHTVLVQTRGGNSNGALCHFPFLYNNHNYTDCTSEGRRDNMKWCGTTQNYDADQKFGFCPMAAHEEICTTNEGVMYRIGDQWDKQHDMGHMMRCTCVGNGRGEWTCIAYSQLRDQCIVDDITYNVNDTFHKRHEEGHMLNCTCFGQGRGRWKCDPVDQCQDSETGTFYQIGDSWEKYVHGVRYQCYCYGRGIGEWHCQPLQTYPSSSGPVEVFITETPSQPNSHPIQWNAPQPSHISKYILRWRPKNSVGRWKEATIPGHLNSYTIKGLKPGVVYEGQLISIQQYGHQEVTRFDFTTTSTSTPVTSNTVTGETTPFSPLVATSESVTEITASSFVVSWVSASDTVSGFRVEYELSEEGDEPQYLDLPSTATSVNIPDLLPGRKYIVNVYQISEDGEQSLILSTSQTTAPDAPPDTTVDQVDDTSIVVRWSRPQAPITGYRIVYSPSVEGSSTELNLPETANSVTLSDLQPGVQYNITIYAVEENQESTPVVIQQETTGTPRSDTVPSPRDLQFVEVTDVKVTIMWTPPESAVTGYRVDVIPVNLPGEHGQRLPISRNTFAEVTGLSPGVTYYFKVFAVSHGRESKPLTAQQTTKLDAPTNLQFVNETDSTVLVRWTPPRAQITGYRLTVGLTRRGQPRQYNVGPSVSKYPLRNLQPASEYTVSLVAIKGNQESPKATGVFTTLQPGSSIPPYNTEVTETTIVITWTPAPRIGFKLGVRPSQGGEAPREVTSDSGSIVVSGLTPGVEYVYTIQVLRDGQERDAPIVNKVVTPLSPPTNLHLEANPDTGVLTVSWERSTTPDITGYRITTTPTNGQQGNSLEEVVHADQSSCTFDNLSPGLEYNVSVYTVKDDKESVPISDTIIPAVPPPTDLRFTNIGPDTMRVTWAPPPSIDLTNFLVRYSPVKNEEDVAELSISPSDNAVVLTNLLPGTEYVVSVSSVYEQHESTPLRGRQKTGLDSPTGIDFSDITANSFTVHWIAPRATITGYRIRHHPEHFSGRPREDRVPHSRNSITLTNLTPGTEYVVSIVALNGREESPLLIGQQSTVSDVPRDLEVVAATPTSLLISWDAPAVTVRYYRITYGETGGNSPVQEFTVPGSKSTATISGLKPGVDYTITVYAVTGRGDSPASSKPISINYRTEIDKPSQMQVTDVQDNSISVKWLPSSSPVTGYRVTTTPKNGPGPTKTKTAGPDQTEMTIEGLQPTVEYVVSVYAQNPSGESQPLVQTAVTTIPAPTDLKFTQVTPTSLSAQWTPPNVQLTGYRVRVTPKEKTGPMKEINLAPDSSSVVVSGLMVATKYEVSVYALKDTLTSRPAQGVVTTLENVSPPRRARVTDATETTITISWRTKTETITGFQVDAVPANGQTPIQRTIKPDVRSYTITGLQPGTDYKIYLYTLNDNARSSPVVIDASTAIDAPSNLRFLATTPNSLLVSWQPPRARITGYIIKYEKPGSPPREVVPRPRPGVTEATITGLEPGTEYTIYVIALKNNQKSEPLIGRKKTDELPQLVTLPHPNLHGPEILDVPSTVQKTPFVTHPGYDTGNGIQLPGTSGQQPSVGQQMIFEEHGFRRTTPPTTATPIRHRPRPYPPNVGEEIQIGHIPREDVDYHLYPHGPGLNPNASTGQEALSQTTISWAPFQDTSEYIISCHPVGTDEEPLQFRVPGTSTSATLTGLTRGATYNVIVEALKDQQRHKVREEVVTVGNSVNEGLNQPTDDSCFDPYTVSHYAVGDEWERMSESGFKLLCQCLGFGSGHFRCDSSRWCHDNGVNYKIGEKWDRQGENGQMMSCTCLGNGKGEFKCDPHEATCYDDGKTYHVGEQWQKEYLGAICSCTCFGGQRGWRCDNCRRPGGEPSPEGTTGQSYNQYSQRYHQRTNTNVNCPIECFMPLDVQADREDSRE

[2] = target: T1, Plasminogen-depleted human fibrinogen; experiment: as above
Human collagen type I = target: T3, Human collagen type I (human, UniProt P02452 162-1218; P08123 80-1119); experiment: as above
T3 construct: Bought protein, immobilized at 0.5 µg per well; also called collagen I
T3 sequence (P02452 162-1218, chain 1 of 2): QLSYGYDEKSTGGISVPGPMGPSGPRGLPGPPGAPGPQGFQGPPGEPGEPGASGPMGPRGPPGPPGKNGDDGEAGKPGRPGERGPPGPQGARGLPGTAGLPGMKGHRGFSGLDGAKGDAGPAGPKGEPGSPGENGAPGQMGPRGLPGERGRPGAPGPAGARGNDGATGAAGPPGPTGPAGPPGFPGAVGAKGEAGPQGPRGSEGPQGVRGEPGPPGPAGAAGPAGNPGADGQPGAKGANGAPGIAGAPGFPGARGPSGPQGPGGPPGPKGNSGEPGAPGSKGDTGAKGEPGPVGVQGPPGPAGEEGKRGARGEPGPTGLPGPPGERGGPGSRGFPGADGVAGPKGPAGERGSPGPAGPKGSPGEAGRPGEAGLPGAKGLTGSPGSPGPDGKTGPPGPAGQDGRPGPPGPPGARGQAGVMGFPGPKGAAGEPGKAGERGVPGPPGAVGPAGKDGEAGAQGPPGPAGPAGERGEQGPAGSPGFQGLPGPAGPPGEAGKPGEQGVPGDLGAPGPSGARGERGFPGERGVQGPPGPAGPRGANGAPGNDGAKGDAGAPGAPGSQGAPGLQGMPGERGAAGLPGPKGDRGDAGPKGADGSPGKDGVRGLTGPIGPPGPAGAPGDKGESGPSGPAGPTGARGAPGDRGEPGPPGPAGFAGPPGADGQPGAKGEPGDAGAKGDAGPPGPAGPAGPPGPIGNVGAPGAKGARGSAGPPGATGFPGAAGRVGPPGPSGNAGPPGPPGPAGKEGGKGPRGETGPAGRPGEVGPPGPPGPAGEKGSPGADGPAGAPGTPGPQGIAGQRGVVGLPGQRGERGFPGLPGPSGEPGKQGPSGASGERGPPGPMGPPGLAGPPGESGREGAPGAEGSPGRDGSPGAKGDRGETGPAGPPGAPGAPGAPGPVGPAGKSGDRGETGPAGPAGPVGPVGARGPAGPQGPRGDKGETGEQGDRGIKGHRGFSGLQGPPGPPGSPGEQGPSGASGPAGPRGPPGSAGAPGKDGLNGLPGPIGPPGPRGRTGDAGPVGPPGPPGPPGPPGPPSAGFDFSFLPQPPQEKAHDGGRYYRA
T3 sequence (P08123 80-1119, chain 2 of 2): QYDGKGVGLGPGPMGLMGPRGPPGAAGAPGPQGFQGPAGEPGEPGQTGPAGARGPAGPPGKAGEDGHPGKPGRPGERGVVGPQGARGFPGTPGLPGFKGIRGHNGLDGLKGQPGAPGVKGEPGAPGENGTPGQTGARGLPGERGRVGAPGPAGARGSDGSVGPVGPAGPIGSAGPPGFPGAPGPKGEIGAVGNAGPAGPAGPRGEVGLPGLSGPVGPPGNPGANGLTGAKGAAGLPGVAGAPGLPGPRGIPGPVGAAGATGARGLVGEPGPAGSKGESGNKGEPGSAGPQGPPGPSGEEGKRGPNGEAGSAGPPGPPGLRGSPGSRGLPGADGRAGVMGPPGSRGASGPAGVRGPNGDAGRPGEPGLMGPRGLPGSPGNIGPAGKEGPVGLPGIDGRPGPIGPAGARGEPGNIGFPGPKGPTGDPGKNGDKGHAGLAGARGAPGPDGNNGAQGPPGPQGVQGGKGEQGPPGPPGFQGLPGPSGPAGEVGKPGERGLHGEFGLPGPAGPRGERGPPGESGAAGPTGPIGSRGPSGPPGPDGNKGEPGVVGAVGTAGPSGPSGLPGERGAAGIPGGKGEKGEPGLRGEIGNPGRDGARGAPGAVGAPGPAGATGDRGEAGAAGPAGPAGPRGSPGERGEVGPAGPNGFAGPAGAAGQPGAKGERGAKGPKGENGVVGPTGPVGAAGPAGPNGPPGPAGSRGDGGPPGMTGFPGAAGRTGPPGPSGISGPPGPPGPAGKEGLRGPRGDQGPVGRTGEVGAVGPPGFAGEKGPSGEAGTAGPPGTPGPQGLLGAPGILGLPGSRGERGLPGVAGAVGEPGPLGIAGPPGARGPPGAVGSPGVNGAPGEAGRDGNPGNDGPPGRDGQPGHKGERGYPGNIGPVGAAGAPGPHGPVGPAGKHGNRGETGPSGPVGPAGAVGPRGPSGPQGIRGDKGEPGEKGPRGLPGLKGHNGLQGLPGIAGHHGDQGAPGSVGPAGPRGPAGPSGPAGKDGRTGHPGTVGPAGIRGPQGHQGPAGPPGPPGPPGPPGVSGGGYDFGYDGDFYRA

[3] = target: T1, Plasminogen-depleted human fibrinogen; experiment: 96-well plate binding assay, immobilized host protein, His-tagged peptide, A600
[4] = target: T1, Plasminogen-depleted human fibrinogen; experiment: 96-well plate binding assay, immobilized host protein 0.5 µg/well, peptide 2.0 µg/well, A600

Row | Binder | binding result [1] | binding result [2] | binding result (Human collagen type I) | binding result [3] | binding result [4]
1 | B1 | no binding (tested: 2.0 µg per well) | no binding (tested: 2.0 µg per well) | no binding (tested: 2.0 µg per well) | – | –
2 | B2 | no binding (tested: 2.0 µg per well) | no binding (tested: 2.0 µg per well) | no binding (tested: 2.0 µg per well) | – | –
3 | HHHHHHTSNDWGQSLAILHEPQLGILQAGI (Scrambled synthetic peptide) [scrambled version of Tp0751 peptide 6 (p6scr)] | no binding (tested: 2.0 µg per well) | no binding (tested: 2.0 µg per well) | no binding (tested: 2.0 µg per well) | – | –
4 | B3 | – | – | – | binds | –
5 | B4 | – | – | – | binds | –
6 | HHHHHHMRLTPGWHTANQIRPQAQGVATAA (Scrambled synthetic peptide) [scrambled version of Tp0751 peptide 4 (p4scr)] | no binding (tested: 2.0 µg per well) | no binding (tested: 2.0 µg per well) | no binding (tested: 2.0 µg per well) | – | –
7 | B5 | no binding (tested: 2.0 µg per well) | no binding (tested: 2.0 µg per well) | no binding (tested: 2.0 µg per well) | – | –
8 | B6 | – | – | – | – | binds
9 | HHHHHHSIRRRLEVTFESHEVIHVRAVEDV (also called peptide 11) [Tp0751 peptide p11] | – | – | – | – | binds
10 | B7 | no binding (tested: 2.0 µg per well) | no binding (tested: 2.0 µg per well) | no binding (tested: 2.0 µg per well) | – | –
